Measured values published in the supplement of paper PMC10567573.

B1: ADD1 (parent)
chain: FASDGDSGTCSPLRHSFQKQQREK
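Further: lentivirally expressed fusions sorted by FACS into six bins by GFP to DsRed ratio, PSI derived from sequencing read proportions per bin multiplied by bin number.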

Variants of: B1
Assay: protein stability index of a GFP-peptide fusion (GPS, HEK-293T) (PSI 1-6); higher = more stable
Details: c terminus: a fixed tail appended
With G5C the protein stability index was 3.57. Variant G5D has a protein stability index of 4.29. Variant G5E has a protein stability index of 4.74. G5F gave a protein stability index of 4.01. For G5H, the protein stability index was 3.43. Work on G5I yielded a protein stability index of 3.68. G5K showed a protein stability index of 3.76. Variant G5L has a protein stability index of 3.83. G5M showed a protein stability index of 3.62. In the case of G5N, the protein stability index is reported as 4.29. G5P showed a protein stability index of 3.67. Work on G5Q yielded a protein stability index of 4.66. Work on G5R yielded a protein stability index of 3.35. With G5S the protein stability index was 4.17. G5T gave a protein stability index of 4.37. Variant G5V has a protein stability index of 3.94. Variant G5W has a protein stability index of 1.56. For G5Y, the protein stability index was 3.42. With D6A the protein stability index was 2.41. In the case of D6C, the protein stability index is reported as 3.01. D6E gave a protein stability index of 3.98. D6F gave a protein stability index of 1.97. D6G gave a protein stability index of 3.31. For D6H, the protein stability index was 2.29. In the case of D6I, the protein stability index is reported as 1.92. D6K gave a protein stability index of 2.8. With D6L the protein stability index was 2.6. Variant D6M has a protein stability index of 2.27. D6N gave a protein stability index of 3.18. Work on D6P yielded a protein stability index of 3.34. Variant D6Q has a protein stability index of 3.17. Variant D6R has a protein stability index of 3.44. For D6S, the protein stability index was 3.12. With D6T the protein stability index was 2.9. D6V showed a protein stability index of 3.13. D6W showed a protein stability index of 3.8. In the case of D6Y, the protein stability index is reported as 1.7. With S7A the protein stability index was 3.82. In the case of S7C, the protein stability index is reported as 2.96. With S7D the protein stability index was 4.18. With S7E the protein stability index was 4.26. S7F gave a protein stability index of 2.72. For S7G, the protein stability index was 3.46. S7H gave a protein stability index of 3.42. Variant S7I has a protein stability index of 1.49. In the case of S7K, the protein stability index is reported as 3.69. S7L gave a protein stability index of 2.11. Variant S7M has a protein stability index of 3.14. Variant S7N has a protein stability index of 4.14. S7P showed a protein stability index of 3.85. Variant S7Q has a protein stability index of 3.76. Work on S7R yielded a protein stability index of 4.01. Work on S7T yielded a protein stability index of 3.19. For S7V, the protein stability index was 1.49. S7W gave a protein stability index of 2.06. For S7Y, the protein stability index was 3.04. For G8A, the protein stability index was 2.82. Work on G8C yielded a protein stability index of 3.1. G8D showed a protein stability index of 4.29. Variant G8E has a protein stability index of 3.92. For G8F, the protein stability index was 1.44. For G8H, the protein stability index was 3.86. G8I gave a protein stability index of 3.15. In the case of G8K, the protein stability index is reported as 3.57. With G8L the protein stability index was 3.2. Variant G8M has a protein stability index of 2.96. In the case of G8N, the protein stability index is reported as 3.5. In the case of G8P, the protein stability index is reported as 4.47. G8Q gave a protein stability index of 3.7. With G8R the protein stability index was 3.98. In the case of G8S, the protein stability index is reported as 3.58. G8T gave a protein stability index of 3.75. For G8V, the protein stability index was 3.81. With G8Y the protein stability index was 2.5. For T9A, the protein stability index was 4.16. For T9C, the protein stability index was 3.52. Variant T9D has a protein stability index of 4.36. For T9E, the protein stability index was 4.79. T9F gave a protein stability index of 1.64. T9H gave a protein stability index of 3.45. T9I showed a protein stability index of 2.49. Variant T9L has a protein stability index of 3.58. With T9M the protein stability index was 2.4. Variant T9N has a protein stability index of 4.13. In the case of T9P, the protein stability index is reported as 4.35. In the case of T9Q, the protein stability index is reported as 4.04. T9R showed a protein stability index of 3.33. T9S gave a protein stability index of 3.82. Variant T9V has a protein stability index of 3.31. With T9W the protein stability index was 3.71. T9Y gave a protein stability index of 2.16. For C10A, the protein stability index was 4.67. For C10D, the protein stability index was 4.68. C10E gave a protein stability index of 4.66. C10F showed a protein stability index of 1.87. With C10G the protein stability index was 4.49. For C10H, the protein stability index was 4.01. Work on C10I yielded a protein stability index of 4.24. Variant C10K has a protein stability index of 4.17. For C10L, the protein stability index was 3.85. Work on C10M yielded a protein stability index of 3.75. C10N showed a protein stability index of 5.17. For C10P, the protein stability index was 3.65. For C10Q, the protein stability index was 4.13. Variant C10R has a protein stability index of 4.07. Work on C10S yielded a protein stability index of 4.78. C10T gave a protein stability index of 4.44. Work on C10V yielded a protein stability index of 3.85. Variant C10Y has a protein stability index of 1.63. In the case of S11A, the protein stability index is reported as 3.9. For S11C, the protein stability index was 3.16. In the case of S11D, the protein stability index is reported as 4.04. S11E gave a protein stability index of 4.5. Work on S11F yielded a protein stability index of 3.17. S11G gave a protein stability index of 4.35. For S11H, the protein stability index was 2.62. For S11I, the protein stability index was 3.79. For S11K, the protein stability index was 4.45. Work on S11L yielded a protein stability index of 3.94. In the case of S11M, the protein stability index is reported as 3.75. Variant S11N has a protein stability index of 1.87. S11P gave a protein stability index of 4.62. Variant S11Q has a protein stability index of 4.25. S11R gave a protein stability index of 4.39. Work on S11T yielded a protein stability index of 4.53. S11V gave a protein stability index of 4.58. Variant S11W has a protein stability index of 2.17. Variant S11Y has a protein stability index of 3.92. With P12A the protein stability index was 4.76. Variant P12C has a protein stability index of 2.73. Variant P12D has a protein stability index of 4.34. P12E gave a protein stability index of 3.93. In the case of P12F, the protein stability index is reported as 3.02. In the case of P12G, the protein stability index is reported as 4.73. P12H showed a protein stability index of 3.91. Variant P12I has a protein stability index of 3.37. With P12K the protein stability index was 3.3. P12L gave a protein stability index of 3.88. Work on P12M yielded a protein stability index of 4.39. P12N showed a protein stability index of 4.95. In the case of P12Q, the protein stability index is reported as 4.79. Variant P12R has a protein stability index of 4.6. Variant P12S has a protein stability index of 3.67. P12T showed a protein stability index of 4.59. Work on P12V yielded a protein stability index of 3.89. For P12Y, the protein stability index was 3.86. For L13A, the protein stability index was 4.98. Work on L13C yielded a protein stability index of 4.25. L13D showed a protein stability index of 4.72. L13E gave a protein stability index of 4.89. L13F gave a protein stability index of 2.39. In the case of L13G, the protein stability index is reported as 4.22. L13H gave a protein stability index of 5.09. With L13I the protein stability index was 3.97. In the case of L13K, the protein stability index is reported as 4.57. Work on L13M yielded a protein stability index of 4.02. For L13N, the protein stability index was 4.26. For L13P, the protein stability index was 4.1. L13Q showed a protein stability index of 4.95. L13R gave a protein stability index of 5.28. Work on L13S yielded a protein stability index of 4.55. For L13T, the protein stability index was 4.98. In the case of L13V, the protein stability index is reported as 5. Variant L13Y has a protein stability index of 2.13. R14A gave a protein stability index of 4.18. In the case of R14C, the protein stability index is reported as 3.52. R14D gave a protein stability index of 4.75.
